From the supplement of paper PMC11246515 come the findings set out here.

± gives the standard deviation of the averaged measurements.

The nature of the data set: total protein half-life in vivo (active degradation + dilution); higher = more stable protein.
The mark [1] stands for this setting: E. coli NCM3722 delta-clpP delta-lon delta-hslV, growth: N-lim chemostat, doubling time 6 h.
[2] abbreviates: E. coli NCM3722 delta-clpP, growth: N-lim chemostat, doubling time 6 h.
The mark [3] stands for this setting: E. coli NCM3722 delta-lon, growth: N-lim chemostat, doubling time 6 h.
Where [4] appears, read: E. coli NCM3722 delta-smpB, growth: N-lim chemostat, doubling time 6 h.
[5] abbreviates: wild type E. coli NCM3722, growth: C-lim chemostat, doubling time 3 h.
[6] abbreviates: wild type E. coli NCM3722, growth: C-lim chemostat, doubling time 6 h.
[7] abbreviates: wild type E. coli NCM3722, growth: C-lim chemostat, doubling time 12 h.
[8] abbreviates: wild type E. coli NCM3722, growth: N-lim chemostat, doubling time 6 h.
Where [9] appears, read: wild type E. coli NCM3722, growth: N-lim chemostat, doubling time 12 h.
Where [10] appears, read: E. coli NCM3722 delta-hslV, growth: N-lim chemostat, doubling time 6 h.
Where [11] appears, read: wild type E. coli NCM3722, growth: P-lim chemostat, doubling time 6 h.
Where [12] appears, read: wild type E. coli NCM3722, growth: P-lim chemostat, doubling time 12 h.

Regarding “MRNIIKLALAGLLSVSTFAVAAESSPEALRIGYQKGSIGMVLAKSHQLLEKRYPESKISWVEFPAGPQMLEALNVGSIDLGSTGDIPPIFAQAAGADLVYVGVEPPKPKAEVILVAENSPIKTVADLKGHKVAFQKGSSSHNLLLRALRQAGLKFTDIQPTYLTPADARAAFQQGNVDAWAIWDPYYSAALLQGGVRVLKDGTDLNQTGSFYLAARPYAEKNGAFIQGVLATFSEADALTRSQREQSIALLAKTMGLPAPVIASYLDHRPPTTIKPVNAEVAALQQQTADLFYENRLVPKKVDIRQRIWQPTQLEGKQL”, the “total protein half-life in vivo” value is, setting by setting: under setting [1], 5.27 ± 1.8 h; under setting [2], 5.07 ± 0.72 h; under setting [3], 4.66 ± 1.7 h; under setting [4], 5.32 ± 0.25 h; under setting [5], > 4 h; under setting [6], 4.74 ± 0.1 h. The “total protein half-life in vivo” value under setting [7] was 8.06 h, the “total protein half-life in vivo” value under setting [8] is 5.64 h and the “total protein half-life in vivo” value under setting [9] turned out to be 12.52 ± 0.069 h.

As to “MKTFFRTVLFGSLMAVCANSYALSESEAEDMADLTAVFVFLKNDCGYQNLPNGQIRRALVFFAQQNQWDLSNYDTFDMKALGEDSYRDLSGIGIPVAKKCKALARDSLSLLAYVK [P0AA95]”, the “total protein half-life in vivo” value under setting [1] was 3.21 ± 0.054 h; the “total protein half-life in vivo” value under setting [2] stood at 3.39 ± 0.072 h; the “total protein half-life in vivo” value under setting [10] came to 6.81 h; the “total protein half-life in vivo” value under setting [3] turned out to be 2.74 h; the “total protein half-life in vivo” value under setting [4] came out at 3.47 ± 0.12 h; the “total protein half-life in vivo” value under setting [6] is 3.61 ± 0.71 h. Also, the “total protein half-life in vivo” value under setting [7] stood at 4.74 h; the “total protein half-life in vivo” value under setting [8] was found to be 3.1 ± 0.091 h; the “total protein half-life in vivo” value under setting [9] was 5.56 ± 1.2 h; the “total protein half-life in vivo” value under setting [11] was found to be 3.21 ± 0.85 h; the “total protein half-life in vivo” value under setting [12] was determined as 5.86 ± 0.72 h.

On to “MSETKNELEDLLEKAATEPAHRPAFFRTLLESTVWVPGTAAQGEAVVEDSALDLQHWEKEDGTSVIPFFTSLEALQQAVEDEQAFVVMPVRTLFEMTLGETLFLNAKLPTGKEFMPREISLLIGEEGNPLSSQEILEGGESLILSEVAEPPAQMIDSLTTLFKTIKPVKRAFICSIKENEEAQPNLLIGIEADGDIEEIIQATGSVATDTLPGDEPIDICQVKKGEKGISHFITEHIAPFYERRWGGFLRDFKQNRII [P0AFZ1]”, for which the “total protein half-life in vivo” value runs as follows: under setting [1], 3.64 h; under setting [2], 3.49 ± 0.42 h; under setting [10], 2.73 h; under setting [3], 3.96 ± 0.78 h; under setting [4], 2.39 ± 0.091 h; under setting [5], 2.44 h. Also, the “total protein half-life in vivo” value runs as follows: under setting [6], 4.53 ± 0.38 h; under setting [7], 6.76 ± 0.27 h; under setting [8], 2.81 h; under setting [9], 4.38 h; under setting [11], 3.65 h; under setting [12], 7.61 h.

“MNTSHVRVVTHMCGFLVWLYSLSMLPPMVVALFYKEKSLFVFFITFVIFFCIGGGAWYTTKKSGIQLRTRDGFIIIVMFWILFSVISAFPLWIDSELNLTFIDALFEGVSGITTTGATVIDDVSSLPRAYLYYRSQLNFIGGLGVIVLAVAVLPLLGIGGAKLYQSEMPGPFKDDKLTPRLADTSRTLWITYSLLGIACIVCYRLAGMPLFDAICHGISTVSLGGFSTHSESIGYFNNYLVELVAGSFSLLSAFNFTLWYIVISRKTIKPLIRDIELRFFLLIALGVIIVTSFQVWHIGMYDLHGSFIHSFFLASSMLTDNGLATQDYASWPTHTIVFLLLSSFFGGCIGSTCGGIKSLRFLILFKQSKHEINQLSHPRALLSVNVGGKIVTDRVMRSVWSFFFLYTLFTVFFILVLNGMGYDFLTSFATVAACINNMGLGFGATASSFGVLNDIAKCLMCIAMILGRLEIYPVIILFSGFFWRS”: the “total protein half-life in vivo” value reads like this: under setting [2], > 8 h; under setting [10], 5.64 ± 0.43 h; under setting [4], 6.77 h; under setting [5], > 4 h; under setting [7], 13.5 h; under setting [9], > 16 h. Besides, the “total protein half-life in vivo” value under setting [11] was > 8 h.

“MELLLLSNSTLPGKAWLEHALPLIAEQLQGRRSAVFIPFAGVTQTWDDYTAKTAAVLAPLGVSVTGIHSVVDPVAAIENAEIVIVGGGNTFQLLKQCRERGLLAPITDVVKRGALYIGWSAGANLACPTIRTTNDMPIVDPQGFDALNLFPLQINPHFTNALPEGHKGETREQRIRELLVVAPELTIIGLPEGNWITVSKGHATLGGPNTTYVFKAGEEAVPLEAGHRF [P0A7C6]”: the “total protein half-life in vivo” value by setting is: under setting [1], 3.28 h; under setting [5], 3.03 h; under setting [6], 4.93 ± 0.56 h; under setting [7], 9.36 h; under setting [8], 4.73 h; under setting [9], 5.8 h. The “total protein half-life in vivo” value under setting [11] amounted to 5.69 ± 0.077 h and the “total protein half-life in vivo” value under setting [12] was 11.1 ± 0.86 h.

As to “MSEISRQEFQRRRQALVEQMQPGSAALIFAAPEVTRSADSEYPYRQNSDFWYFTGFNEPEAVLVLIKSDDTHNHSVLFNRVRDLTAEIWFGRRLGQDAAPEKLGVDRALAFSEINQQLYQLLNGLDVVYHAQGEYAYADVIVNSALEKLRKGSRQNLTAPATMIDWRPVVHEMRLFKSPEEIAVLRRAGEITAMAHTRAMEKCRPGMFEYHLEGEIHHEFNRHGARYPSYNTIVGSGENGCILHYTENECEMRDGDLVLIDAGCEYKGYAGDITRTFPVNGKFTQAQREIYDIVLESLETSLRLYRPGTSILEVTGEVVRIMVSGLVKLGILKGDVDELIAQNAHRPFFMHGLSHWLGLDVHDVGVYGQDRSRILEPGMVLTVEPGLYIAPDAEVPEQYRGIGIRIEDDIVITETGNENLTASVVKKPEEIEALMVAARKQ”, the “total protein half-life in vivo” value by setting is: under setting [1], 5.813 ± 0.036 h; under setting [2], 6.45 ± 0.88 h; under setting [10], 5.23 ± 0.15 h; under setting [3], 6 ± 0.092 h; under setting [4], 5.36 ± 0.3 h; under setting [5], 3.12 ± 0.1 h. For the same sequence, the “total protein half-life in vivo” value runs as follows: under setting [6], 6 ± 0.22 h; under setting [7], 12.4 ± 1.5 h; under setting [8], 5.53 ± 0.15 h; under setting [9], 10.3 ± 0.72 h; under setting [11], 5.95 ± 0.51 h; under setting [12], 12.8 ± 0.42 h.

As for “MKAFWRNAALLAVSLLPFSSANALALQAKQYGDFDRYVLALSWQTGFCQSQHDRNRNERDECRLQTETTNKADFLTVHGLWPGLPKSVAARGVDERRWMRFGCATRPIPNLPEARASRMCSSPETGLSLETAAKLSEVMPGAGGRSCLERYEYAKHGACFGFDPDAYFGTMVRLNQEIKESEAGKFLADNYGKTVSRRDFDAAFAKSWGKENVKAVKLTCQGNPAYLTEIQISIKADAINAPLSANSFLPQPHPGNCGKTFVIDKAGY”, the “total protein half-life in vivo” value stood at 5.86 ± 0.29 h under setting [1]; 6.73 ± 0.69 h under setting [10]; 6.91 ± 0.17 h under setting [3]; 5.96 ± 0.5 h under setting [4]; 2.91 ± 0.23 h under setting [5]; 6.59 ± 1.8 h under setting [6]. The “total protein half-life in vivo” value runs as follows: under setting [8], 5.72 ± 0.6 h; under setting [9], 12.8 ± 0.28 h; under setting [11], 5.74 ± 0.09 h.

On to “MRKYRLSEEQRAFSYQEDGTKKNVLLRQIIAISDFNDVIAGTAGGWIDRETVLAQEGNCWIYDQNAIAFGGAVISGNTRITGTSVLWGEVYATDNVWIDNSEISQGAYISDSVTIHDSLVYGQCRIFGHALIDQHSMIVAAQGLTPDHQLLLQIYDRARVSASRIVHQAQIYGDAVVRYAFIEHRAEVFDFASIEGNEENNVWLCDCAKVYGHAQVKAGIEEDAIPTIHYSSQVAEYAIVEGNCVLKHHVLVGGNAVVRGGPILLDEHVVIQGESRITGAVIIENHVELTDHAVVEAFDGDTVHVRGPKVINGEERITRTPLAGLL”, for which the “total protein half-life in vivo” value under setting [2] stood at 4.51 h; the “total protein half-life in vivo” value under setting [10] turned out to be 3.02 h; the “total protein half-life in vivo” value under setting [4] is 2.62 ± 0.092 h; the “total protein half-life in vivo” value under setting [5] stood at 2.39 h; the “total protein half-life in vivo” value under setting [7] was determined as 6.16 h; the “total protein half-life in vivo” value under setting [8] was determined as 3.27 h. Also, the “total protein half-life in vivo” value amounted to 5.74 h under setting [9] and 8.26 ± 1 h under setting [12].
